What was measured:
Test in all cases: EMSA; 5 mM Ca2+; EMSA: 40 mM Tris-acetate pH 8.3, 0.1 mg/ml BSA, 10% glycerol, 5 mM CaCl2 or 0.1 mM EDTA, 1 nM DNA, room temperature, 15 min
Conditions in all cases: protein: recombinant; chain copies: 2; label: 33P; blunt
BsaWI R130A = target: T1, BsaWI R130A (UniProt Q6UQ65 1-272, R130A)
T1 sequence: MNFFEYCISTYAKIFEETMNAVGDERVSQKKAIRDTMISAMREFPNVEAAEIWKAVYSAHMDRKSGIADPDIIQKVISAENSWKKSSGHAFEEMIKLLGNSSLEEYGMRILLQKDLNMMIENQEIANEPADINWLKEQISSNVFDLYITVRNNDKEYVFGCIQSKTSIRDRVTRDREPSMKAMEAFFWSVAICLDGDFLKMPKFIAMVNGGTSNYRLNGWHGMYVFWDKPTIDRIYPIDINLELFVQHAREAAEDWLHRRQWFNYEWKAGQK

BsaWI E128A&R130A = target: T2, BsaWI E128A&R130A (UniProt Q6UQ65 1-272, E128A;R130A)
T2 sequence: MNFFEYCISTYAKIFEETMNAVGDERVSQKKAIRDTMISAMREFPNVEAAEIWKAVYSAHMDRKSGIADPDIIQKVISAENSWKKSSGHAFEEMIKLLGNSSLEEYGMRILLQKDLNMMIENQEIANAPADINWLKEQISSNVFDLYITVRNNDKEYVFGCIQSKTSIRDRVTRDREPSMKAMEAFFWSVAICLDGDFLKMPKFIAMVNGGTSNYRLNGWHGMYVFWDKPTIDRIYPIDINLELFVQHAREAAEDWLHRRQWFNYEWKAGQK

BsaWI E128A&W262A = target: T3, BsaWI E128A&W262A (UniProt Q6UQ65 1-272, E128A;W262A)
T3 sequence: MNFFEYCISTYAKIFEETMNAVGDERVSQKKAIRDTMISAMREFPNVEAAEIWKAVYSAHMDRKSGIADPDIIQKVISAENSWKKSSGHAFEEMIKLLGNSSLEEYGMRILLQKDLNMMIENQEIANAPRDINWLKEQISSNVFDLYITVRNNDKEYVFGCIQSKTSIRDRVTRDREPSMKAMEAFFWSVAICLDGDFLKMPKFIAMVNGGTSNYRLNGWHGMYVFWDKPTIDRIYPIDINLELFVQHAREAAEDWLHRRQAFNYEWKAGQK

BsaWI R259A = target: T4, BsaWI R259A (UniProt Q6UQ65 1-272, R259A)
T4 sequence: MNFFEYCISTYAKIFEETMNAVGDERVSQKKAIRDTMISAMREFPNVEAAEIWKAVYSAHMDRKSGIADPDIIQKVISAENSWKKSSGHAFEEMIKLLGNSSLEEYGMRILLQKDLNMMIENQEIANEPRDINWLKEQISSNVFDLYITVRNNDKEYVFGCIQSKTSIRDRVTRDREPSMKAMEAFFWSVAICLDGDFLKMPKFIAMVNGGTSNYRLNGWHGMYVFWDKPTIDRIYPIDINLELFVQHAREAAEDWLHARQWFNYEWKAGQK

BsaWI R259A&W262A = target: T5, BsaWI R259A&W262A (UniProt Q6UQ65 1-272, R259A;W262A)
T5 sequence: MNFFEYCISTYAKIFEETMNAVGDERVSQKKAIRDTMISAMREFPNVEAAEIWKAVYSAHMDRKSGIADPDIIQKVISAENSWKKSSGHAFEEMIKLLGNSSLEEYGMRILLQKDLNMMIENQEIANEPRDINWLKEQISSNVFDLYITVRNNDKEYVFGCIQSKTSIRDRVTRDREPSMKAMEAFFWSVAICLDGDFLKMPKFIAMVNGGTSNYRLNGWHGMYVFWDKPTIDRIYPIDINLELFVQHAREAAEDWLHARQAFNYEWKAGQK

B1: SP (dsDNA)
DNA 1: GCCTTTCGGTTTACCGGTGTCATTCCGCTG
DNA 2: CAGCGGAATGACACCGGTAAACCGAAAGGC
B1 showed a Kd (BsaWI R130A) of 3.9 ± 0.6 nM, a Kd (BsaWI E128A&R130A) of 2.1 ± 0.5 nM and a Kd (BsaWI E128A&W262A) of 2.7 ± 0.7 nM. It also gave a Kd (BsaWI R259A) of 2 ± 0.3 nM and a Kd (BsaWI R259A&W262A) of 2.6 ± 0.6 nM.

Reference: publication PMC4652773, “Functional significance of protein assemblies predicted by the crystal structure of the restriction endonuclease BsaWI”
